Series [1] has as its system HeLa Kyoto. The series is described as follows: solubility change mitosis vs G1/S (difference of NP-40 vs SDS log2 ratios) (log2 ratio difference); higher = more soluble in mitosis.
Series [2] deals with HeLa Kyoto. The series is described as follows: melting temperature (median over replicates), in situ; higher = more thermally stable.
In series [3] the test system is HeLa Kyoto. The series is described as follows: thermal stability score vs G1/S (z-score of summed log2 fold changes over temperatures); higher = more thermally stable than in G1/S.
Series [4] deals with HeLa Kyoto. The series is described as follows: solubility in G1/S (NP-40 vs SDS abundance) (log2 ratio); higher = more soluble. Particulars: cell cycle stage: G1/S.
Setting [5] is: cell cycle stage: early G1 (4.5 h after nocodazole release).

Five sequences from the supplement of paper PMC5998384 can be followed below.
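For melting temperature (median over replicates), in situ in this document: HeLa Kyoto cells synchronized by double thymidine or nocodazole block, proteins quantified by TMT10plex mass spectrometry, three independent biological replicates.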
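For solubility change mitosis vs G1/S (difference of NP-40 vs SDS log2 ratios) in this document: synchronized HeLa Kyoto cells (double thymidine block for G1/S, nocodazole release for mitosis), protein amounts in NP-40 versus SDS lysates quantified by mass spectrometry, three biological replicates.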
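For solubility in G1/S (NP-40 vs SDS abundance) in this document: HeLa Kyoto cells arrested at G1/S by double thymidine block, proteins quantified by TMT10plex mass spectrometry in mild NP-40 versus SDS extracts, three biological replicates.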
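For thermal stability score vs G1/S (z-score of summed log2 fold changes over temperatures) in this document: synchronized HeLa Kyoto cells, proteins quantified by TMT10plex mass spectrometry, three biological replicates, mitosis taken 0.5 h after nocodazole release, G1/S directly after double thymidine block.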

As for “MSWESGAGPGLGSQGMDLVWSAWYGKCVKGKGSLPLSAHGIVVAWLSRAEWDQVTVYLFCDDHKLQRYALNRITVWRSRSGNELPLAVASTADLIRCKLLDVTGGLGTDELRLLYGMALVRFVNLISERKTKFAKVPLKCLAQEVNIPDWIVDLRHELTHKKMPHINDCRRGCYFVLDWLQKTYWCRQLENSLRETWELEEFREGIEEEDQEEDKNIVVDDITEQKPEPQDDGKSTESDVKADGDSKGSEEVDSHCKKALSHKELYERARELLVSYEEEQFTVLEKFRYLPKAIKAWNNPSPRVECVLAELKGVTCENREAVLDAFLDDGFLVPTFEQLAALQIEYEDGQTEVQRGEGTDPKSHKNVDLNDVLVPKPFSQFWQPLLRGLHSQNFTQALLERMLSELPALGISGIRPTYILRWTVELIVANTKTGRNARRFSAGQWEARRGWRLFNCSASLDWPRMVESCLGSPCWASPQLLRIIFKAMGQGLPDEEQEKLLRICSIYTQSGENSLVQEGSEASPIGKSPYTLDSLYWSVKPASSSFGSEAKAQQQEEQGSVNDVKEEEKEEKEVLPDQVEEEEENDDQEEEEEDEDDEDDEEEDRMEVGPFSTGQESPTAENARLLAQKRGALQGSAWQVSSEDVRWDTFPLGRMPGQTEDPAELMLENYDTMYLLDQPVLEQRLEPSTCKTDTLGLSCGVGSGNCSNSSSSNFEGLLWSQGQLHGLKTGLQLF [LAS1L]”, in series [1], the “solubility change mitosis (log2)” value was found to be 0.658. The values for the melting temperature in series [2] (cell cycle stage: G1/S) and in series [2] (cell cycle stage: mitosis) were 49.7 °C and 51 °C, respectively. The results for the thermal stability score in series [3] (setting [5]) and in series [3] (cell cycle stage: mitosis) were 1.98 and 2.81, respectively. In series [4], the “solubility in G1/S (log2)” value was -1.4.

As to “MSWMFKRDPVWKYLQTVQYGVHGNFPRLSYPTFFPRFEFQDVIPPDDFLTSDEEVDSVLFGSLRGHVVGLRYYTGVVNNNEMVALQRDPNNPYDKNAIKVNNVNGNQVGHLKKELAGALAYIMDNKLAQIEGVVPFGANNAFTMPLHMTFWGKEENRKAVSDQLKKHGFKLGPAPKTLGFNLESGWGSGRAGPSYSMPVHAAVQMTTEQLKTEFDKLFEDLKEDDKTHEMEPAEAIETPLLPHQKQALAWMVSRENSKELPPFWEQRNDLYYNTITNFSEKDRPENVHGGILADDMGLGKTLTAIAVILTNFHDGRPLPIERVKKNLLKKEYNVNDDSMKLGGNNTSEKADGLSKDASRCSEQPSISDIKEKSKFRMSELSSSRPKRRKTAVQYIESSDSEEIETSELPQKMKGKLKNVQSETKGRAKAGSSKVIEDVAFACALTSSVPTTKKKMLKKGACAVEGSKKTDVEERPRTTLIICPLSVLSNWIDQFGQHIKSDVHLNFYVYYGPDRIREPALLSKQDIVLTTYNILTHDYGTKGDSPLHSIRWLRVILDEGHAIRNPNAQQTKAVLDLESERRWVLTGTPIQNSLKDLWSLLSFLKLKPFIDREWWHRTIQRPVTMGDEGGLRRLQSLIKNITLRRTKTSKIKGKPVLELPERKVFIQHITLSDEERKIYQSVKNEGRATIGRYFNEGTVLAHYADVLGLLLRLRQICCHTYLLTNAVSSNGPSGNDTPEELRKKLIRKMKLILSSGSDEECAICLDSLTVPVITHCAHVFCKPCICQVIQNEQPHAKCPLCRNDIHEDNLLECPPEELARDSEKKSDMEWTSSSKINALMHALTDLRKKNPNIKSLVVSQFTTFLSLIEIPLKASGFVFTRLDGSMAQKKRVESIQCFQNTEAGSPTIMLLSLKAGGVGLNLSAASRVFLMDPAWNPAAEDQCFDRCHRLGQKQEVIITKFIVKDSVEENMLKIQNKKRELAAGAFGTKKPNADEMKQAKINEIRTLIDL [HLTF]”, the “solubility change mitosis (log2)” value in series [1] is -0.0719. Further, the melting temperature in series [2] (cell cycle stage: G1/S) worked out at 48.9 °C; in series [2] (cell cycle stage: mitosis), 50.2 °C. For the same sequence, the values for the thermal stability score in series [3] (setting [5]) and in series [3] (cell cycle stage: mitosis) were 2.36 and 4.68, respectively. Moreover, the “solubility in G1/S (log2)” value in series [4] was -0.124.

For the sequence “MSWSPSLTTQTCGAWEMKERLGTGGFGNVIRWHNQETGEQIAIKQCRQELSPRNRERWCLEIQIMRRLTHPNVVAARDVPEGMQNLAPNDLPLLAMEYCQGGDLRKYLNQFENCCGLREGAILTLLSDIASALRYLHENRIIHRDLKPENIVLQQGEQRLIHKIIDLGYAKELDQGSLCTSFVGTLQYLAPELLEQQKYTVTVDYWSFGTLAFECITGFRPFLPNWQPVQWHSKVRQKSEVDIVVSEDLNGTVKFSSSLPYPNNLNSVLAERLEKWLQLMLMWHPRQRGTDPTYGPNGCFKALDDILNLKLVHILNMVTGTIHTYPVTEDESLQSLKARIQQDTGIPEEDQELLQEAGLALIPDKPATQCISDGKLNEGHTLDMDLVFLFDNSKITYETQISPRPQPESVSCILQEPKRNLAFFQLRKVWGQVWHSIQTLKEDCNRLQQGQRAAMMNLLRNNSCLSKMKNSMASMSQQLKAKLDFFKTSIQIDLEKYSEQTEFGITSDKLLLAWREMEQAVELCGRENEVKLLVERMMALQTDIVDLQRSPMGRKQGGTLDDLEEQARELYRRLREKPRDQRTEGDSQEMVRLLLQAIQSFEKKVRVIYTQLSKTVVCKQKALELLPKVEEVVSLMNEDEKTVVRLQEKRQKELWNLLKIACSKVRGPVSGSPDSMNASRLSQPGQLMSQPSTASNSLPEPAKKSEELVAEAHNLCTLLENAIQDTVREQDQSFTALDWSWLQTEEEEHSCLEQAS [IKBKB]”, the “solubility change mitosis (log2)” value in series [1] was -0.171. Also, the melting temperature in series [2] (cell cycle stage: G1/S) is 48.3 °C; in series [2] (cell cycle stage: mitosis), 49.2 °C. For the same sequence, the thermal stability score in series [3] (setting [5]) is 1.13; in series [3] (cell cycle stage: mitosis), 2.17. Besides, in series [4], the “solubility in G1/S (log2)” value turned out to be 0.0875.

“MSYTPGVGGDPAQLAQRISSNIQKITQCSVEIQRTLNQLGTPQDSPELRQQLQQKQQYTNQLAKETDKYIKEFGSLPTTPSEQRQRKIQKDRLVAEFTTSLTNFQKVQRQAAEREKEFVARVRASSRVSGSFPEDSSKERNLVSWESQTQPQVQVQDEEITEDDLRLIHERESSIRQLEADIMDINEIFKDLGMMIHEQGDVIDSIEANVENAEVHVQQANQQLSRAADYQRKSRKTLCIIILILVIGVAIISLIIWGLNH [STX7]”: in series [1], the “solubility change mitosis (log2)” value was found to be 0.264. Also, the figures for the melting temperature in series [2] (cell cycle stage: G1/S) and in series [2] (cell cycle stage: mitosis) were 54.1 °C and 55 °C, respectively. Further, the thermal stability score is -1.45 in series [3] (setting [5]) and -2.01 in series [3] (cell cycle stage: mitosis). In addition, the “solubility in G1/S (log2)” value in series [4] turned out to be 0.637.

Regarding “MTANRLAESLLALSQQEELADLPKDYLLSESEDEGDNDGERKHQKLLEAISSLDGKNRRKLAERSEASLKVSEFNVSSEGSGEKLVLADLLEPVKTSSSLATVKKQLSRVKSKKTVELPLNKEEIERIHREVAFNKTAQVLSKWDPVVLKNRQAEQLVFPLEKEEPAIAPIEHVLSGWKARTPLEQEIFNLLHKNKQPVTDPLLTPVEKASLRAMSLEEAKMRRAELQRARALQSYYEAKARREKKIKSKKYHKVVKKGKAKKALKEFEQLRKVNPAAALEELEKIEKARMMERMSLKHQNSGKWAKSKAIMAKYDLEARQAMQEQLSKNKELTQKLQVASESEEEEGGTEDVEELLVPDVVNEVQMNADGPNPWMLRSCTSDTKEAATQEDPEQLPELEAHGVSESEGEERPVAEEEILLREFEERRSLRKRSELSQDAEPAGSQETKDSGSQEVLSELRVLSQKLKENHQSRKQKASSEGTIPQVQREEPAPEEEEPLLLQRPERVQTLEELEELGKEECFQNKELPRPVLEGQQSERTPNNRPDAPKEKKKKEQMIDLQNLLTTQSPSVKSLAVPTIEELEDEEERNHRQMIKEAFAGDDVIRDFLKEKREAVEASKPKDVDLTLPGWGEWGGVGLKPSAKKRRRFLIKAPEGPPRKDKNLPNVIINEKRNIHAAAHQVRVLPYPFTHHWQFERTIQTPIGSTWNTQRAFQKLTTPKVVTKPGHIINPIKAEDVGYRSSSRSDLSVIQRNPKRITTRHKKQLKKCSVD [UTP14A]”, the “solubility change mitosis (log2)” value in series [1] was determined as 0.895. For the same sequence, the melting temperature came to 53 °C in series [2] (cell cycle stage: G1/S) and 52.8 °C in series [2] (cell cycle stage: mitosis). Also, the thermal stability score is -4.25 in series [3] (setting [5]) and -2.2 in series [3] (cell cycle stage: mitosis). Moreover, the “solubility in G1/S (log2)” value in series [4] is -1.64.
